Literature values as cited in article PMC9558312.

Experiments:
Assay in all cases: NMR
[1] = biological target: Asp42 (UniProt position 63, KRGCADNCPKN)
[2] = biological target: Asp59 (UniProt position 80, VCCSTDKCN--)
[3] = biological target: Glu17 (UniProt position 38, YKTCPEGKNLC)
[4] = biological target: His4 (UniProt position 25, YTLKCHNTQLP)
[5] = biological target: Asp101 (UniProt position 119, KKIVSDGNGMN)
[6] = biological target: Asp119 (UniProt position 137, RCKGTDVQAWI)
[7] = biological target: Asp18 (UniProt position 36, KRHGLDNYRGY)
[8] = biological target: Asp48 (UniProt position 66, TNRNTDGSTDY)
[9] = biological target: Asp52 (UniProt position 70, TDGSTDYGILQ)
[10] = biological target: Asp66 (UniProt position 84, RWWCNDGRTPG)
[11] = biological target: Asp87 (UniProt position 105, ALLSSDITASV)
[12] = biological target: Glu35 (UniProt position 53, CAAKFESNFNT)
[13] = biological target: Glu7 (UniProt position 25, VFGRCELAAAM)

| Substance | pKa [1] | pKa [2] | pKa [3] | pKa [4] | pKa [5] | pKa [6] | pKa [7] | pKa [8] | pKa [9] | pKa [10] | pKa [11] | pKa [12] | pKa [13] |
| --- | --- | --- | --- | --- | --- | --- | --- | --- | --- | --- | --- | --- | --- |
| Cardiotoxin V (cytotoxin 5, CTX A5) (Naja naja atra (Naja atra, Taiwan cobra)) | 3.2 | <2 | 4 | 5.5 |  |  |  |  |  |  |  |  |  |
| Hen egg white lysozyme (HEWL, lysozyme C) (Gallus gallus) |  |  |  |  | 4.5 | 3.5 | 2.8 | 1.4 | 3.6 | 1.2 | 2.2 | 6.1 | 2.6 |
